Consider 76 sequences from the supplement of paper PMC7877785.

± gives the uncertainty stated by the source.

This series is described as follows: self-splicing fitness, log relative to wild type (ln ratio); higher = more splicing; Tetrahymena group I intron in knt gene, E. coli kanamycin selection, DiMSum; sequences stand for … in CUCUCU…GGAGGGAAAAGUUAUCAGGCAUGCACCUGGUAGCUAGUCUUUAAACCAAUAGAUUGCAUCGGUUUAAAAGGCAAGACCGUCAAAUUGCGGGAAAGGGGUCAACAGCCGUUCAGUACCAAGUCUCAGGGGAAACUUUGAGAUGGCCUUGCAAAGGGUAUGGUAAUAAGCUGACGGACAUGGUCCUAACCACGCAGCCAAGUCCUAAGUCAACAGAUCUUCUGUUGAUAUGGAUGCAGUUCACAGACUAAAUGUCGGUCGGGGAAGAUGUAUUCUUCUCAUAAGAUAUAGUCGGACCUCUCCUUAAUGGGAGCUAGCGGAUGAAGUGAUGCAACACUGGAGCCGCUGGGAACUAAUUUGUAUGCGAAAGUAUAUUGAUUAGUUUUGGAGUACUCGUGGUCG
In short, it runs like this: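 Six replicate transformations of E. coli BL21(DE3) with a pET-22b(+) library were grown overnight at 37°C or 30°C. The library randomised all eight P1ex-region intron nucleotides, the intron lying in the knt kanamycin-resistance gene, and plates were LB agar with or without 25 μg/mL kanamycin plus 100 μg/mL carbenicillin, 50 μM IPTG and 0.2% rhamnose. Pooled colonies were amplicon-sequenced on an Illumina HiSeq 2500, and fitness is the DiMSum error-weighted combination of wild-type-normalised replicate fold changes, kanamycin versus none.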

For the sequence AAUCAGCAAUAUUACGUCAG, the “self-splicing fitness (ln)” value runs as follows: (30 °C) -1.86 ± 0.12; (37 °C) -0.81 ± 0.12.
Taken in the same sequence, the figures for AAUCAGCAAUAUUACGUCUG were -1.16 ± 0.049 and -0.895 ± 0.065.
Consider AAUCAGCAAUAUUACGUGGC, for which the “self-splicing fitness (ln)” value is, setting by setting: (30 °C) -3.57 ± 0.17; (37 °C) -1.83 ± 0.12.
Taken in the same sequence, the figures for AAUCAGCAAUAUUACGUUGC were -3.97 ± 0.23 and -3.16 ± 0.22.
AAUGAGCAAUAUUACGACAC: where the note is “30 °C”, the “self-splicing fitness (ln)” value was -2.71 ± 0.31.
For AAUGAGCAAUAUUACGACGA, the “self-splicing fitness (ln)” value (30 °C) was -2.44 ± 0.34 and the “self-splicing fitness (ln)” value (37 °C) was -3.22 ± 0.47.
For AAUGAGCAAUAUUACGACGU, the “self-splicing fitness (ln)” value is -1.13 ± 0.11 (30 °C) and -0.443 ± 0.12 (37 °C).
Turning to AAUGAGCAAUAUUACGAGGC, under “37 °C”, the “self-splicing fitness (ln)” value was -3.11 ± 0.4.
As to AAUGAGCAAUAUUACGAUGU, the “self-splicing fitness (ln)” value by setting is: (30 °C) -2.94 ± 0.15; (37 °C) -1.97 ± 0.17.
As to AAUGAGCAAUAUUACGCAGU, the “self-splicing fitness (ln)” value is, setting by setting: (30 °C) -2.51 ± 0.2; (37 °C) -3.29 ± 0.31.
The corresponding values for AAUGAGCAAUAUUACGCCGA are -2.34 ± 0.3 and -1.75 ± 0.43.
Consider AAUGAGCAAUAUUACGCUUA, for which the “self-splicing fitness (ln)” value (30 °C) is -1.94 ± 0.14 and the “self-splicing fitness (ln)” value (37 °C) is -0.919 ± 0.12.
The corresponding values for AAUGAGCAAUAUUACGCUUG are -3.09 ± 0.17 and -2.11 ± 0.18.
On to AAUGAGCAAUAUUACGGAAC, for which, where the note is “30 °C”, the “self-splicing fitness (ln)” value was -3.52 ± 0.47.
Take AAUGAGCAAUAUUACGGGCG: where the note is “37 °C”, the “self-splicing fitness (ln)” value was -3.07 ± 0.47.
Turning to AAUGAGCAAUAUUACGGUCC, where the note is “30 °C”, the “self-splicing fitness (ln)” value was -2.47 ± 0.45.
Take AAUGAGCAAUAUUACGUCAA: the “self-splicing fitness (ln)” value by setting is: (30 °C) -2.4 ± 0.21; (37 °C) -2.59 ± 0.46.
The corresponding values for AAUGAGCAAUAUUACGUCAC are -2.93 ± 0.41 and -1.92 ± 0.29.
The corresponding values for AAUGAGCAAUAUUACGUCCU are -1.45 ± 0.13 and -0.218 ± 0.12.
Taken in the same sequence, the figures for AAUGAGCAAUAUUACGUCUC were -2.96 ± 0.23 and -2.19 ± 0.24.
On to AAUGAGCAAUAUUACGUGGA, for which the “self-splicing fitness (ln)” value reads like this: (30 °C) -3.35 ± 0.32; (37 °C) -3.04 ± 0.35.
Taken in the same sequence, the figures for AAUGAGCAAUAUUACGUGGG were -4.39 ± 0.36 and -2.87 ± 0.21.
As for AAUGAGCAAUAUUACGUUCC, the “self-splicing fitness (ln)” value is -2.71 ± 0.17 (30 °C) and -1.43 ± 0.2 (37 °C).
Taken in the same sequence, the figures for AAUUAGCAAUAUUACGACCG were -1.2 ± 0.13 and 0.0816 ± 0.21.
Take AAUUAGCAAUAUUACGAUAG: the “self-splicing fitness (ln)” value runs as follows: (30 °C) -3.1 ± 0.26; (37 °C) -1.75 ± 0.18.
The corresponding values for AAUUAGCAAUAUUACGCAAU are -2.4 ± 0.13 and -1.74 ± 0.17.
Taken in the same sequence, the figures for AAUUAGCAAUAUUACGCCGA were -1.34 ± 0.26 and -0.981 ± 0.21.
The corresponding values for AAUUAGCAAUAUUACGCCUC are -1.22 ± 0.18 and -2.47 ± 0.25.
In the case of AAUUAGCAAUAUUACGCUGU, the “self-splicing fitness (ln)” value by setting is: (30 °C) -1.44 ± 0.16; (37 °C) -1.26 ± 0.2.
The corresponding values for AAUUAGCAAUAUUACGGAAC are -2.77 ± 0.13 and -2.18 ± 0.2.
Take AAUUAGCAAUAUUACGGAUU: the “self-splicing fitness (ln)” value runs as follows: (30 °C) -2.2 ± 0.12; (37 °C) -1.3 ± 0.14.
The corresponding values for AAUUAGCAAUAUUACGGCAC are -1.11 ± 0.16 and -0.154 ± 0.21.
Taken in the same sequence, the figures for AAUUAGCAAUAUUACGGUAA were -2.72 ± 0.2 and -0.655 ± 0.22.
In the case of AAUUAGCAAUAUUACGGUAU, the “self-splicing fitness (ln)” value is, setting by setting: (30 °C) -1.29 ± 0.097; (37 °C) -0.598 ± 0.11.
The corresponding values for AAUUAGCAAUAUUACGGUUG are -2.53 ± 0.13 and -0.897 ± 0.13.
The corresponding values for AAUUAGCAAUAUUACGUACU are -0.151 ± 0.089 and 0.263 ± 0.13.
Taken in the same sequence, the figures for AAUUAGCAAUAUUACGUAUG were -1.04 ± 0.12 and -1.13 ± 0.16.
For AAUUAGCAAUAUUACGUCUU, the “self-splicing fitness (ln)” value was determined as 0.444 ± 0.091 (30 °C) and 0.46 ± 0.098 (37 °C).
Taken in the same sequence, the figures for AAUUAGCAAUAUUACGUGAG were -1.71 ± 0.077 and -0.654 ± 0.1.
The corresponding values for AAUUAGCAAUAUUACGUGAU are -1.87 ± 0.13 and -1.56 ± 0.16.
The corresponding values for AAUUAGCAAUAUUACGUUAU are -2.88 ± 0.18 and -1.11 ± 0.12.
AAUUAGCAAUAUUACGUUCC: the “self-splicing fitness (ln)” value by setting is: (30 °C) -3 ± 0.22; (37 °C) -1.32 ± 0.21.
Taken in the same sequence, the figures for AAUUAGCAAUAUUACGUUUC were -2.89 ± 0.23 and -1.57 ± 0.23.
As for ACAAAGCAAUAUUACGAAGG, the “self-splicing fitness (ln)” value runs as follows: (30 °C) -2.52 ± 0.087; (37 °C) -1.75 ± 0.12.
The corresponding values for ACAAAGCAAUAUUACGAAGU are -2.04 ± 0.12 and -2.06 ± 0.18.
The corresponding values for ACAAAGCAAUAUUACGACAG are -1.34 ± 0.066 and -0.8 ± 0.084.
The corresponding values for ACAAAGCAAUAUUACGAGGU are -4.39 ± 0.2 and -2.78 ± 0.18.
As for ACAAAGCAAUAUUACGAUCG, the “self-splicing fitness (ln)” value is, setting by setting: (30 °C) -0.241 ± 0.074; (37 °C) 0.193 ± 0.095.
In the case of ACAAAGCAAUAUUACGCACG, the “self-splicing fitness (ln)” value was -1.96 ± 0.12 (30 °C) and -0.724 ± 0.1 (37 °C).
Taken in the same sequence, the figures for ACAAAGCAAUAUUACGCCAA were -2.34 ± 0.24 and -1.86 ± 0.18.
The corresponding values for ACAAAGCAAUAUUACGCCGC are -3.43 ± 0.31 and -1.52 ± 0.28.
Turning to ACAAAGCAAUAUUACGCGUG, the “self-splicing fitness (ln)” value by setting is: (30 °C) -1.5 ± 0.043; (37 °C) -0.274 ± 0.057.
For ACAAAGCAAUAUUACGGACC, the “self-splicing fitness (ln)” value reads like this: (30 °C) -1.02 ± 0.1; (37 °C) -1.5 ± 0.15.
The corresponding values for ACAAAGCAAUAUUACGGACU are -0.0658 ± 0.051 and 0.338 ± 0.079.
Take ACAAAGCAAUAUUACGGCCG: the “self-splicing fitness (ln)” value reads like this: (30 °C) -0.257 ± 0.09; (37 °C) 0.0921 ± 0.14.
Taken in the same sequence, the figures for ACAAAGCAAUAUUACGGCCU were -0.338 ± 0.071 and 0.0409 ± 0.1.
Taken in the same sequence, the figures for ACAAAGCAAUAUUACGGCGG were -0.226 ± 0.08 and -0.154 ± 0.092.
Take ACAAAGCAAUAUUACGGGAU: the “self-splicing fitness (ln)” value is, setting by setting: (30 °C) -1.19 ± 0.058; (37 °C) -0.492 ± 0.076.
Taken in the same sequence, the figures for ACAAAGCAAUAUUACGGGGG were -2.81 ± 0.13 and -2.19 ± 0.16.
Taken in the same sequence, the figures for ACAAAGCAAUAUUACGGGGU were -3.15 ± 0.16 and -2.59 ± 0.18.
The corresponding values for ACAAAGCAAUAUUACGUAAG are -1.19 ± 0.056 and -0.79 ± 0.069.
On to ACAAAGCAAUAUUACGUAGA, for which the “self-splicing fitness (ln)” value reads like this: (30 °C) -3.68 ± 0.16; (37 °C) -1.66 ± 0.15.
Taken in the same sequence, the figures for ACAAAGCAAUAUUACGUCCG were -0.802 ± 0.049 and -0.466 ± 0.063.
The corresponding values for ACAAAGCAAUAUUACGUUGC are -3.26 ± 0.12 and -2.57 ± 0.16.
The corresponding values for ACAAAGCAAUAUUACGUUUC are -4.84 ± 0.24 and -2.49 ± 0.16.
As for ACAAAGCAAUAUUACGUUUU, the “self-splicing fitness (ln)” value (30 °C) was -3.53 ± 0.14 and the “self-splicing fitness (ln)” value (37 °C) was -2.95 ± 0.16.
The corresponding values for ACACAGCAAUAUUACGAACG are -0.869 ± 0.048 and -0.185 ± 0.068.
Taken in the same sequence, the figures for ACACAGCAAUAUUACGAAUU were -3.01 ± 0.084 and -2.02 ± 0.1.
The corresponding values for ACACAGCAAUAUUACGAGCU are -0.901 ± 0.077 and -0.406 ± 0.085.
For the sequence ACACAGCAAUAUUACGCACC, the “self-splicing fitness (ln)” value by setting is: (30 °C) -0.476 ± 0.09; (37 °C) -0.151 ± 0.11.
Taken in the same sequence, the figures for ACACAGCAAUAUUACGCAGG were -2.43 ± 0.093 and -1.82 ± 0.1.
The corresponding values for ACACAGCAAUAUUACGGAAC are -4.07 ± 0.17 and -2.49 ± 0.14.
With ACACAGCAAUAUUACGGAUU, the “self-splicing fitness (ln)” value is -2.18 ± 0.096 (30 °C) and -1.45 ± 0.12 (37 °C).
The corresponding values for ACACAGCAAUAUUACGGCGG are -0.95 ± 0.069 and -0.0948 ± 0.088.
The corresponding values for ACACAGCAAUAUUACGGGAG are -2.04 ± 0.073 and -2.15 ± 0.084.
For ACACAGCAAUAUUACGGGGU, the “self-splicing fitness (ln)” value (30 °C) is -3.14 ± 0.11 and the “self-splicing fitness (ln)” value (37 °C) was -1.42 ± 0.087.
